The term Km denotes the substrate concentration at which the rate is half of its maximum. For orientation: Vmax means the top rate of the reaction or transport when substrate is in excess. Broadly, the kcat is the maximal rate divided by the concentration of active sites.

Substrate in this data set: O=P(O)(O)O[C@H]1O[C@H](CO)[C@@H](O)[C@H](O)[C@H]1O
Nature of the data set: HPAEC-PAD, direct detection of hexose phosphates. Type of data set: biochemical, Arabidopsis thaliana. Conditions: 20 mM PBS pH 7.0, 10 mM MgSO4, 20 µM glucose-1,6-bisphosphate, 30 °C. An excerpt: HPAEC-PAD, direct detection of hexose phosphates on AtAGM

B1: AtAGM (Arabidopsis thaliana) (protein)
chain: MDEIQIASILKSSELFPIPQGVKLSYGTAGFRGDAKLLESTVYRVGILSALRSLKLGSATVGLMITASHNKVSDNGIKVSDPSGFMLSQEWEPFADQIANASSPEELVSLIRKFMEKEEIAIGENNKGAEVWLGRDTRPSGESLLRAGEIGVGSILGSVAIDIGILTTPQLHWMVRAKNKGLKATENDYFENLSTSFRCLIDLIPSSGNDKLEISKLLVDGANGVGGQKIEKLRGSLSNLDVEIRNTGRDGGVLNEGVGADFVQKEKVLPVGFGFKDVGMRCASLDGDADRLVYFYIPSDSSEKVELLDGDKILSLFALFIKEQLNALEDDEERKQSRLGVVQTAYANGASTDYLKHLGLDVVFAKTGVKHLHEKAAEFDIGIYFEANGHGTILFSESFLSWLVSKQKDLTAKGQGGSEEHKAVSRLMAVSNLINQAVGDALSGVLLVEVILQHLGWSIEKWNELYKDLPSRQIKVEVPDRTAVVTTSEETEALRPMGIQDAINSEIKKYSRGRAFIRPSGTEDVVRVYAEASTQEDADSLANSVAQLVKSFLGSS
For the protein B1, the Km turned out to be 679.18 ± 156.40 µM, the Vmax came out at 0.137 µmol/min and the kcat came out at 40.4 s⁻¹.

For the origin of these results see publication PMC4715444, “A simple and rapid method for measuring α-D-phosphohexomutases activity by using anion-exchange chromatography coupled with an electrochemical detector” (PeerJ, 2016).
